PMC9919667

Tests used:
[1] = molecular target: asialofetuin (ASF) (bovine (from fetal calf serum)) (UniProt P12763); experiment: ELISA; ASF (5 µg/mL, 200 µL/well) adsorbed on Maxisorp plates; IMAC-purified galectin 0-30 µM in PBS, 1 h; peroxidase-conjugated anti-His6 antibody, TMB; apparent KD, one-site saturation fit; binding efficiency = Bmax/KD
[2] = molecular target: laminin (from Engelbreth-Holm-Swarm sarcoma) (not stated (Engelbreth-Holm-Swarm sarcoma; detected with an anti-mouse-laminin antibody)); experiment: ELISA; laminin, fibronectin or collagen IV (5 µg/mL, 100 µL/well) adsorbed on Maxisorp plates; galectin 0-10 µM, 1 h; peroxidase-conjugated anti-His6 antibody, TMB; apparent KD, one-site saturation fit
[3] = molecular target: collagen IV (from human placenta) (human); experiment: as above
[4] = molecular target: fibronectin (from human plasma) (human) (UniProt P02751); experiment: as above
[5] = molecular target: asialofetuin (ASF) (bovine (from fetal calf serum)) (UniProt P12763); experiment: affinity chromatography on glycoprotein-Sepharose column; ASF or fetuin coupled to CNBr-activated Sepharose 4 Fast Flow (1 mL column); 0.2 µmol of galectin IMAC eluate applied, 15 min incubation, PBS pH 7.5, washed with 10 column volumes, eluted with a 0-0.3 M lactose gradient; eluted amount by Bradford assay; repeated three times
[6] = molecular target: fetuin (bovine (from fetal calf serum)) (UniProt P12763); experiment: as above
[7] = molecular target: HGal-3 (His6-Gal-3) (human) (UniProt P17931); experiment: ELISA; crosslinking assay: ASF adsorbed on Maxisorp plates, saturating galectin (50 µM Gal-1C2S, 25 µM Gal-3, 40 µM Gal-8N) bound for 1 h at room temperature, then laminin, fibronectin or collagen IV 0-50 µM for 1 h; detected with anti-ECM-protein antibodies and peroxidase-conjugated secondary antibodies; apparent KD, one-site saturation fit
[8] = molecular target: HSYGal-3 (His6-SNAP-yellow fluorescent protein-Gal-3) (human) (UniProt P17931); experiment: as above
[9] = molecular target: HGal-8N (His6-Gal-8N, N-terminal domain of galectin-8) (human) (UniProt O00214); experiment: as above
[10] = molecular target: HSeGFPGal-8N (His6-SNAP-eGFP-Gal-8N) (human) (UniProt O00214); experiment: as above
[11] = molecular target: HSDsRedMGal-1C2S (His6-SNAP-DsRedM-Gal-1C2S) (human) (UniProt P09382); experiment: as above
[12] = molecular target: HGal-1C2S (His6-Gal-1 C2S) (human) (UniProt P09382); experiment: as above

Chain of asialofetuin (ASF) (bovine (from fetal calf serum)) (P12763 19-359): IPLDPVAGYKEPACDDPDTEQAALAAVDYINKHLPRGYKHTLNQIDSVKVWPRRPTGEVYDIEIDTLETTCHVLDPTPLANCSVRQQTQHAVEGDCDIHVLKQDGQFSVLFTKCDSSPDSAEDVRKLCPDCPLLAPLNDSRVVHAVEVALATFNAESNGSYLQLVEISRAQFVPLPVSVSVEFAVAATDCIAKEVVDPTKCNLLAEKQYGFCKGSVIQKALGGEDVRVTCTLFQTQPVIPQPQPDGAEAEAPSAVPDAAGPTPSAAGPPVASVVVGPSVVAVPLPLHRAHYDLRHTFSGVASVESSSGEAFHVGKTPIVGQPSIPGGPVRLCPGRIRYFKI
Chain of collagen IV (from human placenta) (human) (P02462 173-1669, chain 1 of 2): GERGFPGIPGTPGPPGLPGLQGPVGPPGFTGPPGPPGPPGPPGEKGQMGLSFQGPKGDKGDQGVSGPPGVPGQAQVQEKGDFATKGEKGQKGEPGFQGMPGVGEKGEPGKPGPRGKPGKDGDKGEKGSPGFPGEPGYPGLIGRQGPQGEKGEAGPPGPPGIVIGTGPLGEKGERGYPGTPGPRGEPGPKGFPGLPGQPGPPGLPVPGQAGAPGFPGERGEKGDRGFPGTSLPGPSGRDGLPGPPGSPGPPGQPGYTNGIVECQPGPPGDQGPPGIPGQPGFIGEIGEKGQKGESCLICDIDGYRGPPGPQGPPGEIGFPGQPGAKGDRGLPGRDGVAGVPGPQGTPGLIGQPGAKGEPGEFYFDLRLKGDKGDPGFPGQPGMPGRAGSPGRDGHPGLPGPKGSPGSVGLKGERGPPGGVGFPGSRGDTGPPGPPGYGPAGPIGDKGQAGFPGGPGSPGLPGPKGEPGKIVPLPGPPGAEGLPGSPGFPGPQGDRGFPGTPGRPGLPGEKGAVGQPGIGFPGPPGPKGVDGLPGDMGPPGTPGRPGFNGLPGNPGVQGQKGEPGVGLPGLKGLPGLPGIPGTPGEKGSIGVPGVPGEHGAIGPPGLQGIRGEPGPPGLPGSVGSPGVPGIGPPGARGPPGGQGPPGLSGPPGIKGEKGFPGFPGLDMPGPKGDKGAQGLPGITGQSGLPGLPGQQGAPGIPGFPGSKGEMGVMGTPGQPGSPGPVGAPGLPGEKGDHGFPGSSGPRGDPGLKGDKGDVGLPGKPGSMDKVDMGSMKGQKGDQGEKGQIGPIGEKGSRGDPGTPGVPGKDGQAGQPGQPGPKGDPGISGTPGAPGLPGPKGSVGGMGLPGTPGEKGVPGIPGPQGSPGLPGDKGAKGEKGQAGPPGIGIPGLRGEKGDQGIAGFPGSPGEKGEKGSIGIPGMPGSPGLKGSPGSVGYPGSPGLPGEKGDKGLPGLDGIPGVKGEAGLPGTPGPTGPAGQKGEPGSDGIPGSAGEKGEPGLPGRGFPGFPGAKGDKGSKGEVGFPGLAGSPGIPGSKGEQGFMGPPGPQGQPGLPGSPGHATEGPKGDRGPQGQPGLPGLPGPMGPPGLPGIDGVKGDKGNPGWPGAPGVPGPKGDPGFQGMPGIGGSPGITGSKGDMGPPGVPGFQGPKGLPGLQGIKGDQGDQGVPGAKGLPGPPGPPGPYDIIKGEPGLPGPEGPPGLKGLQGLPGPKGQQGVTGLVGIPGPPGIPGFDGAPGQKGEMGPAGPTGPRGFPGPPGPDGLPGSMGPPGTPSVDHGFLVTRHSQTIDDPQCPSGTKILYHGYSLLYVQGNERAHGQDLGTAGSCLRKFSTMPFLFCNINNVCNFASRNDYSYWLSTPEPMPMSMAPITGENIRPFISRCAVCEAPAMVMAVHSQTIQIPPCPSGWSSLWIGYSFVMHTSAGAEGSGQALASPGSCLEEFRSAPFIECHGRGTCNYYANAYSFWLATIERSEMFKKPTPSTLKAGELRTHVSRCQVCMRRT
Chain of collagen IV (from human placenta) (human) (P08572 184-1712, chain 2 of 2, further chain): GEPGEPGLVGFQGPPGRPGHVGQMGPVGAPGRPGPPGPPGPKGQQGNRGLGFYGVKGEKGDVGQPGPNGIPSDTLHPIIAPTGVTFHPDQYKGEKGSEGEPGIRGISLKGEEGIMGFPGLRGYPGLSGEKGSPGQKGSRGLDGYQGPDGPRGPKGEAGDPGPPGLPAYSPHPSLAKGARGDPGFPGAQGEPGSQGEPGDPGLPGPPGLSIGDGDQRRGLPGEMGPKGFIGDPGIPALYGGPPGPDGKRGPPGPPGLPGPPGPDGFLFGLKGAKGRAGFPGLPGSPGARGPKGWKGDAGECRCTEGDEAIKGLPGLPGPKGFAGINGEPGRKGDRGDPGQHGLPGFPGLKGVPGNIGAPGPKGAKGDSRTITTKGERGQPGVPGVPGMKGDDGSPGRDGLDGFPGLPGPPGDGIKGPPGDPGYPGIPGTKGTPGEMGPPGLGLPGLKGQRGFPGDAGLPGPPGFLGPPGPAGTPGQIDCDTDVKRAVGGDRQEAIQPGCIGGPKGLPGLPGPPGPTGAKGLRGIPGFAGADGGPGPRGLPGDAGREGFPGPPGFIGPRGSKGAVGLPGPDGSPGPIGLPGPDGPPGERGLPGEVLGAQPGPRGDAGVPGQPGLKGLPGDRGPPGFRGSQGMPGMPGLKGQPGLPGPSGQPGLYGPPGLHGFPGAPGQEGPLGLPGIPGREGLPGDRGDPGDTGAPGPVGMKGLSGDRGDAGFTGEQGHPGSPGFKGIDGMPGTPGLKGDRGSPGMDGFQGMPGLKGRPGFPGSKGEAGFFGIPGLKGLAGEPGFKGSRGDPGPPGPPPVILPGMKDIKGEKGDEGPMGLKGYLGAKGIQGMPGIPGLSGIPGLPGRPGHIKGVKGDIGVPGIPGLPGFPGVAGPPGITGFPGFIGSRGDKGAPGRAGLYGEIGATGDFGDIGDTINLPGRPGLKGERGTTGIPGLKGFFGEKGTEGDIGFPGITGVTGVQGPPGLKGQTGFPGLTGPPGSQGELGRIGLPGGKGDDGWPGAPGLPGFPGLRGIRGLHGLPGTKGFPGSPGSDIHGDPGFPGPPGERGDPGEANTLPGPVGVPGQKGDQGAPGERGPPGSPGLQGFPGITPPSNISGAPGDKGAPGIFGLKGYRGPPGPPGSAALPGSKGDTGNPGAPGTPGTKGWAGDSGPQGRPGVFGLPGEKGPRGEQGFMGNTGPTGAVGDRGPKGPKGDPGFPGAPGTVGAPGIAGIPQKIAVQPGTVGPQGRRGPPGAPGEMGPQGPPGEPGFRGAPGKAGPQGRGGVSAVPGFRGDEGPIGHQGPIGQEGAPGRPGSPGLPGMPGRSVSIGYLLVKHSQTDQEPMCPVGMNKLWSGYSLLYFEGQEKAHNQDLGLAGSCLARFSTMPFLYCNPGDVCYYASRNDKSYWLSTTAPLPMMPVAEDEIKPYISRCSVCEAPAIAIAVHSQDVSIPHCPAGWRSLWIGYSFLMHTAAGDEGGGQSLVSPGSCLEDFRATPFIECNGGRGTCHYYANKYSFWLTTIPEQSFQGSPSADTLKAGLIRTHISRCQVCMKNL
Chain of HGal-8N (His6-Gal-8N, N-terminal domain of galectin-8) (O00214 1-160): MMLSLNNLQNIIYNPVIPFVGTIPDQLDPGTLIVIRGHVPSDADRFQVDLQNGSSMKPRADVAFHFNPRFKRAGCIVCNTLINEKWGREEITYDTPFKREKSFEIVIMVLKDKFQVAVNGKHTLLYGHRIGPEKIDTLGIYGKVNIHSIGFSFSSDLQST
Chain of HSeGFPGal-8N (His6-SNAP-eGFP-Gal-8N) (O00214 1-160): as above
Chain of fetuin (bovine (from fetal calf serum)) (P12763 19-359): as the sequence (P12763 19-359) above
Chain of HGal-8N (His6-Gal-8N, N-terminal domain of galectin-8) (human) (O00214 1-160): as the sequence (O00214 1-160) above
Chain of HSeGFPGal-8N (His6-SNAP-eGFP-Gal-8N) (human) (O00214 1-160): as above

In the case of “HDsRedMGal-1C2S (His6-DsRedM-Gal-1C2S, without SNAP-tag) (from UniProt P09382 1-135) (natural protein)”, the Kd [1] is reported as 8800 nM and the apparent binding efficiency (Bmax/KD) [1] is reported as 0.1 µM⁻¹.
In the case of “HGal-1C2S (His6-Gal-1 C2S) (from UniProt P09382 1-135) (natural protein)”, the Kd [2] is reported as 420 nM, the Kd [3] is reported as 1340 nM and the Kd [4] is reported as 1970 nM. It also gave a Kd [1] of 500 nM, an apparent binding efficiency (Bmax/KD) [1] of 1.6 µM⁻¹ and a percent of applied galectin bound and eluted [5] of 70%. It also gave a percent of applied galectin bound and eluted [6] of 30%.
Substance “HGal-3 (His6-Gal-3) (from UniProt P17931 1-250) (natural protein)” has a Kd [2] of 130 nM and a Kd [4] of 430 nM.
For “HGal-8C (His6-Gal-8C, C-terminal domain of galectin-8) (from UniProt O00214 182-317) (domain or fragment)”, the percent of applied galectin bound and eluted [5] was 3%.
For “HGal-8N (His6-Gal-8N, N-terminal domain of galectin-8) (from UniProt O00214 1-160) (domain or fragment)”, the Kd [2] was 180 nM and the Kd [4] was 520 nM.
“HSDsRedMGal-1C2S (His6-SNAP-DsRedM-Gal-1C2S) (from UniProt P09382 1-135) (natural protein)” was tested, and the Kd [2] was 110 nM, the Kd [3] was 140 nM and the Kd [4] was 110 nM. The Kd [1] was 600 nM, the apparent binding efficiency (Bmax/KD) [1] was 1.4 µM⁻¹ and the percent of applied galectin bound and eluted [5] was 4%.
Substance “HSGal-1C2S (His6-SNAP-Gal-1C2S, without fluorescent protein) (from UniProt P09382 1-135) (natural protein)” has a Kd [1] of 800 nM and an apparent binding efficiency (Bmax/KD) [1] of 1.1 µM⁻¹.
With “HSYGal-3 (His6-SNAP-yellow fluorescent protein-Gal-3) (from UniProt P17931 1-250) (natural protein)” the Kd [2] was 70 nM and the Kd [4] was 110 nM.
“HSeGFPGal-8N (His6-SNAP-eGFP-Gal-8N) (from UniProt O00214 1-160) (domain or fragment)” showed a Kd [2] of 40 nM and a Kd [4] of 60 nM.
“fibronectin (from human plasma) (from UniProt P02751 32-2477) (natural protein)” gave a Kd [7] of 5100 nM and a Kd [8] of 10000 nM.
Work on “laminin (from Engelbreth-Holm-Swarm sarcoma) (complex)” yielded a Kd [7] of 270 nM, a Kd [8] of 450 nM and a Kd [9] of 69500 nM. It also gave a Kd [10] of 270 nM, a Kd [11] of 370 nM and a Kd [12] of 380 nM.
